Results on five molecules are retold here after publication PMC11534217, “Direct activation of HSF1 by macromolecular crowding and misfolded proteins”.

The target in data set [1] is HSF1 monomer (SEC-purified) (human (Homo sapiens), UniProt Q00613 1-529). The data set is described as follows: fluorescence polarization; after heat shock (+HS); binding enhanced; FP: 30 nM DNA, 150 mM NaCl, 50 mM HEPES pH 7.2, 1 mM DTT, 0.05% Tween-20, 25 C; EMSA: 200 nM HSF1, 100 nM DNA, 25 mM HEPES pH 7.4, 150 mM NaCl, 10% glycerol, 3. The note with it: protein: recombinant; tags: N-terminal His6-TEV, cleaved by TEV before assay; chain copies: 3; label: 5' FAM on printed strand; described as double-stranded. In general terms: Fluorescence polarisation rises when a labelled molecule tumbles more slowly, as on binding a larger partner.

Data set [2] concerns the target T1, Heat shock factor protein 1 (HSF1), purified recombinant (human), Q00613.
T1 chain: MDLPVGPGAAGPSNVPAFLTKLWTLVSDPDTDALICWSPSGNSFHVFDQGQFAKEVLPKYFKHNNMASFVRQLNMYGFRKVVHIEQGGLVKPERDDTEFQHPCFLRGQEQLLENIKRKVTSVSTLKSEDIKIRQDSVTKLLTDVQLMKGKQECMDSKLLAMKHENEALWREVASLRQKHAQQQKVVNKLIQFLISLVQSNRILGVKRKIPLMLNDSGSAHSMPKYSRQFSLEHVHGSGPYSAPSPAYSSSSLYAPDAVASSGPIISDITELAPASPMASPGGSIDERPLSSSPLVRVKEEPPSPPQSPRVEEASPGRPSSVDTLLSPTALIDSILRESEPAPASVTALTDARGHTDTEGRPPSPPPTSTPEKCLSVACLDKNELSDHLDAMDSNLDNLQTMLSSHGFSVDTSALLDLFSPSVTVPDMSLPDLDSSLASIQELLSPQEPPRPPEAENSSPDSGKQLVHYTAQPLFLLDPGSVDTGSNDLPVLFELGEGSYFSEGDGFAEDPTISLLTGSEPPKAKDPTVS
Nature of the data set: SEC + native gel or EMSA; trimer fraction of purified HSF1 from the same SEC, then Blue native PAGE and western blot. To be noted: remark: other sources report otherwise. A general note: In EMSA bound probe runs differently from free probe, usually more slowly.

Data set [3] addresses T1, Heat shock factor protein 1 (HSF1), …. The data set is described as follows: native gel or EMSA; Blue native PAGE and western blot of purified HSF1 monomer (5 μM) after mild heat (38°C, 0-600 s; or 37°C, 5 min) with or without BSA as crowder (1-50 mg/ml). To be noted: remark: other sources report otherwise.
The target in data set [4] is T2, HSF1, endogenous in H1299 cells (human (endogenous in H1299)), Q00613.
T2 chain: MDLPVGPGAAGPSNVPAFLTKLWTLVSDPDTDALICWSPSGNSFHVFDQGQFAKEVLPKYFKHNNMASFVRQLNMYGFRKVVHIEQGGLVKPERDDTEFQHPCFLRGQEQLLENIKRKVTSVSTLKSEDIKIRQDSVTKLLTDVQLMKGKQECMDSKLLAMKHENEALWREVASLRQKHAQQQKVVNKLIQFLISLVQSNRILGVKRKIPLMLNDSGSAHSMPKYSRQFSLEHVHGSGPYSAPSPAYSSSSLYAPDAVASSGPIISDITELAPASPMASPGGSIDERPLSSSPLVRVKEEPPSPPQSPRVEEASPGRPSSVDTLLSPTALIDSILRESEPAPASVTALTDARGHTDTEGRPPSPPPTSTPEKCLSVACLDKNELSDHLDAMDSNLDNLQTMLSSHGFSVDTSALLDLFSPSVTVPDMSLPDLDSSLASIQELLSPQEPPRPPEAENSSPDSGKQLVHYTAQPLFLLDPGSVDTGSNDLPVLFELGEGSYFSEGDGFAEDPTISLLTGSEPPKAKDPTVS
Nature of the data set: cross-linking; 2 mM DSBU added to the lysate of H1299 cells for 30 minutes, SDS-PAGE, blot with anti-HSF1 c-5; cells treated with AUY-922 (0-200 nM, 2 h) after mTOR inhibitors BEZ-235 or rapamycin (100 nM, 8 h). To be noted: remark: other sources report otherwise.

Data set [5] concerns the target T3, mCherry-HSF1 (human), Q00613.
T3 chain: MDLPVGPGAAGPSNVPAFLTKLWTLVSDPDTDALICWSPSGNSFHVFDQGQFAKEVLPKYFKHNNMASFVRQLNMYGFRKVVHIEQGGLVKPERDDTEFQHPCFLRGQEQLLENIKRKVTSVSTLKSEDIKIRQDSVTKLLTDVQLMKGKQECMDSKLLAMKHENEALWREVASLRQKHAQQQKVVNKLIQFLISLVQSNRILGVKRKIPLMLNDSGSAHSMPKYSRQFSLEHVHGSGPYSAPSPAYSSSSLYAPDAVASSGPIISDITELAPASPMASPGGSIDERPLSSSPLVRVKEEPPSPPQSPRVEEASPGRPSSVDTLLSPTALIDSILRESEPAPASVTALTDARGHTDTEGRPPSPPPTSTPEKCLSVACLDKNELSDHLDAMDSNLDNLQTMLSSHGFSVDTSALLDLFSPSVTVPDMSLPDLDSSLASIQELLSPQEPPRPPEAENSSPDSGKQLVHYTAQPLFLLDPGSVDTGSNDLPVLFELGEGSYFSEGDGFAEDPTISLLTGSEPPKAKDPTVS
Nature of the data set: native gel or EMSA; high resolution clear native electrophoresis (HR CNE) of lysates of H1299 cells with fluorescent HSF1 fusion, fluorescence scan; cells treated with sorbitol, 42°C heat shock, bortezomib or AUY-922. The note with it: remark: other sources report otherwise.

Another data set concerns the target T4, GFP-HSF1 (human), Q00613.
T4 chain: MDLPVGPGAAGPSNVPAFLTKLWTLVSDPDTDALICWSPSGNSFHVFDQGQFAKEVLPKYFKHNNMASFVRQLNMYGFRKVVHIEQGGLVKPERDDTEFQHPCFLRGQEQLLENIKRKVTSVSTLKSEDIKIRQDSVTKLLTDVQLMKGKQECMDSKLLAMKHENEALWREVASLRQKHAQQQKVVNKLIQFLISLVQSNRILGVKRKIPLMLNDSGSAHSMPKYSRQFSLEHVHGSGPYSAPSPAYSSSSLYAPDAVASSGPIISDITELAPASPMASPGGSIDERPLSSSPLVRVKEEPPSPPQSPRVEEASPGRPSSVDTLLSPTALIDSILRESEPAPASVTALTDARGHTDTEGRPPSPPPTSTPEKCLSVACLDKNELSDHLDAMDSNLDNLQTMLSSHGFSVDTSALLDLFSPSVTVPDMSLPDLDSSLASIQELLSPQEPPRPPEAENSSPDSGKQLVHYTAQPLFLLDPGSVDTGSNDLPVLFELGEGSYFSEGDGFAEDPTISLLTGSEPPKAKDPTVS
Described as above. The note with it: remark: other sources report otherwise.

The term stoichiometry N denotes the number of molecules, sites or subunits per partner or assembly.

B1: FAM-HSE (dsDNA)
DNA 1: CCCCTTCCCGAATATTCCCCC
DNA 2: GGGGGAATATTCGGGAAGGGG
For B1, in data set [1], the binding result was “binds”.

B2: Heat shock factor protein 1 (HSF1), purified recombinant, Q00613-1 1-529 (natural protein)
chain: MDLPVGPGAAGPSNVPAFLTKLWTLVSDPDTDALICWSPSGNSFHVFDQGQFAKEVLPKYFKHNNMASFVRQLNMYGFRKVVHIEQGGLVKPERDDTEFQHPCFLRGQEQLLENIKRKVTSVSTLKSEDIKIRQDSVTKLLTDVQLMKGKQECMDSKLLAMKHENEALWREVASLRQKHAQQQKVVNKLIQFLISLVQSNRILGVKRKIPLMLNDSGSAHSMPKYSRQFSLEHVHGSGPYSAPSPAYSSSSLYAPDAVASSGPIISDITELAPASPMASPGGSIDERPLSSSPLVRVKEEPPSPPQSPRVEEASPGRPSSVDTLLSPTALIDSILRESEPAPASVTALTDARGHTDTEGRPPSPPPTSTPEKCLSVACLDKNELSDHLDAMDSNLDNLQTMLSSHGFSVDTSALLDLFSPSVTVPDMSLPDLDSSLASIQELLSPQEPPRPPEAENSSPDSGKQLVHYTAQPLFLLDPGSVDTGSNDLPVLFELGEGSYFSEGDGFAEDPTISLLTGSEPPKAKDPTVS
Consider B2, for which the stoichiometry N in data set [2] and in data set [3] was 3 throughout.

B3: HSF1, endogenous in H1299 cells, Q00613 1-529 (natural protein)
chain: MDLPVGPGAAGPSNVPAFLTKLWTLVSDPDTDALICWSPSGNSFHVFDQGQFAKEVLPKYFKHNNMASFVRQLNMYGFRKVVHIEQGGLVKPERDDTEFQHPCFLRGQEQLLENIKRKVTSVSTLKSEDIKIRQDSVTKLLTDVQLMKGKQECMDSKLLAMKHENEALWREVASLRQKHAQQQKVVNKLIQFLISLVQSNRILGVKRKIPLMLNDSGSAHSMPKYSRQFSLEHVHGSGPYSAPSPAYSSSSLYAPDAVASSGPIISDITELAPASPMASPGGSIDERPLSSSPLVRVKEEPPSPPQSPRVEEASPGRPSSVDTLLSPTALIDSILRESEPAPASVTALTDARGHTDTEGRPPSPPPTSTPEKCLSVACLDKNELSDHLDAMDSNLDNLQTMLSSHGFSVDTSALLDLFSPSVTVPDMSLPDLDSSLASIQELLSPQEPPRPPEAENSSPDSGKQLVHYTAQPLFLLDPGSVDTGSNDLPVLFELGEGSYFSEGDGFAEDPTISLLTGSEPPKAKDPTVS
The molecule B3 showed a stoichiometry N in data set [4] of 3.

B4: mCherry-HSF1, Q00613-1 1-529 (natural protein)
chain: MDLPVGPGAAGPSNVPAFLTKLWTLVSDPDTDALICWSPSGNSFHVFDQGQFAKEVLPKYFKHNNMASFVRQLNMYGFRKVVHIEQGGLVKPERDDTEFQHPCFLRGQEQLLENIKRKVTSVSTLKSEDIKIRQDSVTKLLTDVQLMKGKQECMDSKLLAMKHENEALWREVASLRQKHAQQQKVVNKLIQFLISLVQSNRILGVKRKIPLMLNDSGSAHSMPKYSRQFSLEHVHGSGPYSAPSPAYSSSSLYAPDAVASSGPIISDITELAPASPMASPGGSIDERPLSSSPLVRVKEEPPSPPQSPRVEEASPGRPSSVDTLLSPTALIDSILRESEPAPASVTALTDARGHTDTEGRPPSPPPTSTPEKCLSVACLDKNELSDHLDAMDSNLDNLQTMLSSHGFSVDTSALLDLFSPSVTVPDMSLPDLDSSLASIQELLSPQEPPRPPEAENSSPDSGKQLVHYTAQPLFLLDPGSVDTGSNDLPVLFELGEGSYFSEGDGFAEDPTISLLTGSEPPKAKDPTVS
In turn, B4 yielded a stoichiometry N in data set [5] of 3.

B5: GFP-HSF1, Q00613 1-529 (natural protein)
chain: MDLPVGPGAAGPSNVPAFLTKLWTLVSDPDTDALICWSPSGNSFHVFDQGQFAKEVLPKYFKHNNMASFVRQLNMYGFRKVVHIEQGGLVKPERDDTEFQHPCFLRGQEQLLENIKRKVTSVSTLKSEDIKIRQDSVTKLLTDVQLMKGKQECMDSKLLAMKHENEALWREVASLRQKHAQQQKVVNKLIQFLISLVQSNRILGVKRKIPLMLNDSGSAHSMPKYSRQFSLEHVHGSGPYSAPSPAYSSSSLYAPDAVASSGPIISDITELAPASPMASPGGSIDERPLSSSPLVRVKEEPPSPPQSPRVEEASPGRPSSVDTLLSPTALIDSILRESEPAPASVTALTDARGHTDTEGRPPSPPPTSTPEKCLSVACLDKNELSDHLDAMDSNLDNLQTMLSSHGFSVDTSALLDLFSPSVTVPDMSLPDLDSSLASIQELLSPQEPPRPPEAENSSPDSGKQLVHYTAQPLFLLDPGSVDTGSNDLPVLFELGEGSYFSEGDGFAEDPTISLLTGSEPPKAKDPTVS
As for B5, the stoichiometry N with GFP-HSF1 (human), Q00613 worked out at 3.
